Laboratory results from PMC5373596, “Metal-dependent SpoIIE oligomerization stabilizes FtsZ during asymmetric division in Bacillus subtilis” (PLoS ONE, 2017).

B1: MBP-strep-tag-SpoIIEcyt fusion protein (cytoplasmic part of SpoIIE, domains II and III) (domain or fragment, B. subtilis 168, UniProt P37475 326-827, looked up)
chain: RKVARYIPGTVEHLQEQQQYARKIRDVTAQKVDQFSNVFHALSESFATFYQASDEQTDDSEVDLFLSKITEHSCQTCYKKNRCWVQNFDKTYDLMKQVMLETEEKEYASNRRLKKEFQQYCSKSKQVEELIEDELAHHHAHLTLKKKVQDSRRLVAEQLLGVSEVMADFSREIKREREQHFLQEEQIIEALQHFGIEIQHVEIYSLEQGNIDIEMTIPFSGHGESEKIIAPMLSDILEEQILVKAEQHSPHPNGYSHVAFGSTKSYRVSTGAAHAAKGGGLVSGDSYSMMELGARKYAAAISDGMGNGARAHFESNETIKLLEKILESGIDEKIAIKTINSILSLRTTDEIYSTLDLSIIDLQDASCKFLKVGSTPSFIKRGDQVMKVQASNLPIGIINEFDVEVVSEQLKAGDLLIMMSDGIFEGPKHVENHDLWMKRKMKGLKTNDPQEIADLLMEEVIRTRSGQIEDDMTVVVVRIDHNTPKWASIPVPAIFQNKQEIS
notes: SpoIIE of Bacillus subtilis 168, domains II and III (cytoplasmic part), amino acids 326-827; called a 501 residue fragment; Order on the chain: MBP (from pMalC2x), short strep-tag, SpoIIE 326-827; Co-purifies with about 2 Fe per protein; also called ms-SpoIIEcyt; source: E. coli BL21-RIL, purified (amylose resin, eluted with maltose); not shown: MBP, N-terminal, kept; strep-tag, N-terminal, kept
B2: strep-tagged-SpoIIEcyt (cytoplasmic part of SpoIIE, MBP removed) (domain or fragment, B. subtilis 168, UniProt P37475 326-827, looked up)
chain: B1 chain
notes: SpoIIE of Bacillus subtilis 168, domains II and III (cytoplasmic part), amino acids 326-827; called a 501 residue fragment; also called s-SpoIIEcyt; strep-SpoIIEcyt; not shown: MBP, N-terminal, cleaved; strep-tag, N-terminal, kept
B3: FtsZ (natural protein, B. subtilis, UniProt P17865 1-382, looked up)
chain: MLEFETNIDGLASIKVIGVGGGGNNAVNRMIENEVQGVEYIAVNTDAQALNLSKAEVKMQIGAKLTRGLGAGANPEVGKKAAEESKEQIEEALKGADMVFVTAGMGGGTGTGAAPVIAQIAKDLGALTVGVVTRPFTFEGRKRQLQAAGGISAMKEAVDTLIVIPNDRILEIVDKNTPMLEAFREADNVLRQGVQGISDLIATPGLINLDFADVKTIMSNKGSALMGIGIATGENRAAEAAKKAISSPLLEAAIDGAQGVLMNITGGTNLSLYEVQEAADIVASASDQDVNMIFGSVINENLKDEIVVTVIATGFIEQEKDVTKPQRPSLNQSIKTHNQSVPKREPKREEPQQQNTVSRHTSQPADDTLDIPTFLRNRNKRG
notes: Cell division protein FtsZ of Bacillus subtilis; source: purified as described [25], > 95% purity

Columns and labels:
[1] = biological target: the molecule itself; assay: co-sedimentation; 10 μM ms-SpoIIEcyt in 50 mM MES/NaOH pH 6.5, 50 mM KCl; after 1 mM EDTA, 5 mM MnCl2 added for 30 min; spun at 186,000 x g, supernatant and pellet on SDS-PAGE
[2] = biological target: the molecule itself; assay: transmission electron microscopy; 10 μM FtsZ with or without 1.5 μM s-SpoIIEcyt, or 1.5 μM s-SpoIIEcyt alone with 10 mM MnCl2, in 50 mM Tris/HCl pH 7.5, 300 mM KCl with 1 mM EDTA or 10 mM MgCl2 or 10 mM MnCl2; GTP or GDP; samples taken after 30 min at 30°C
[3] = biological target: the molecule itself; assay: 90° light scattering; 10 μM FtsZ and/or 1.5 μM s-SpoIIEcyt in 50 mM Tris/HCl pH 7.5, 300 mM KCl, 10 mM MgCl2; 2 mM GTP or GDP added after 90 s; 30°C; controls of FtsZ alone with Mn2+ or EDTA
[4] = biological target: B2; assay: as above; settings: both partners purified

## B1
[1]
  binding result: binds

## B2
[2]
  binding result: binds

## B3
[3]
  binding result: binds
[4]
  binding result: binds
